Test results reported in patent US20020147129A1.
Where no end group is shown, it is not given here.

B1: angiotensin IV (peptide)
peptide: VYIHPF
modifications: also: same id also used for [125I]Ang IV tracer, radioiodinated with chloramine T
B2: LVV-haemorphin-7 (peptide)
peptide: LVVYPWTQRF

Assays:
[1] = molecular target: embryonic chicken AT4 receptor (chicken); test: cell-based or functional assay
[2] = molecular target: AT4 receptor of bovine adrenal membranes (bovine); test: competition for 125I-Ang IV binding, bovine adrenal membranes
[3] = molecular target: angiotensin AT4 receptor of Macaca fascicularis brain (Macaca fascicularis); test: competition for [125I]Ang IV binding, monkey prefrontal cortical sections
[4] = molecular target: AT4 receptor of sheep central nervous system (sheep); test: competition for 125I-LVV-haemorphin-7 binding, sheep cerebellar cortical membranes
[5] = molecular target: embryonic chicken Ang II receptor (chicken); test: competition for 125I[Sar1Ile8]Ang II binding, E13 chicken chorioallantoic membranes
[6] = molecular target: embryonic chicken AT4 receptor (chicken); test: competition for [125I]Ang IV binding, E13 chicken chorioallantoic membranes
[7] = molecular target: AT4 receptor of sheep central nervous system (sheep); test: competition for [125I]Ang IV binding, sheep cerebellar cortical membranes

Sequence of embryonic chicken AT4 receptor (chicken) (F1NNE7 entry or part of it): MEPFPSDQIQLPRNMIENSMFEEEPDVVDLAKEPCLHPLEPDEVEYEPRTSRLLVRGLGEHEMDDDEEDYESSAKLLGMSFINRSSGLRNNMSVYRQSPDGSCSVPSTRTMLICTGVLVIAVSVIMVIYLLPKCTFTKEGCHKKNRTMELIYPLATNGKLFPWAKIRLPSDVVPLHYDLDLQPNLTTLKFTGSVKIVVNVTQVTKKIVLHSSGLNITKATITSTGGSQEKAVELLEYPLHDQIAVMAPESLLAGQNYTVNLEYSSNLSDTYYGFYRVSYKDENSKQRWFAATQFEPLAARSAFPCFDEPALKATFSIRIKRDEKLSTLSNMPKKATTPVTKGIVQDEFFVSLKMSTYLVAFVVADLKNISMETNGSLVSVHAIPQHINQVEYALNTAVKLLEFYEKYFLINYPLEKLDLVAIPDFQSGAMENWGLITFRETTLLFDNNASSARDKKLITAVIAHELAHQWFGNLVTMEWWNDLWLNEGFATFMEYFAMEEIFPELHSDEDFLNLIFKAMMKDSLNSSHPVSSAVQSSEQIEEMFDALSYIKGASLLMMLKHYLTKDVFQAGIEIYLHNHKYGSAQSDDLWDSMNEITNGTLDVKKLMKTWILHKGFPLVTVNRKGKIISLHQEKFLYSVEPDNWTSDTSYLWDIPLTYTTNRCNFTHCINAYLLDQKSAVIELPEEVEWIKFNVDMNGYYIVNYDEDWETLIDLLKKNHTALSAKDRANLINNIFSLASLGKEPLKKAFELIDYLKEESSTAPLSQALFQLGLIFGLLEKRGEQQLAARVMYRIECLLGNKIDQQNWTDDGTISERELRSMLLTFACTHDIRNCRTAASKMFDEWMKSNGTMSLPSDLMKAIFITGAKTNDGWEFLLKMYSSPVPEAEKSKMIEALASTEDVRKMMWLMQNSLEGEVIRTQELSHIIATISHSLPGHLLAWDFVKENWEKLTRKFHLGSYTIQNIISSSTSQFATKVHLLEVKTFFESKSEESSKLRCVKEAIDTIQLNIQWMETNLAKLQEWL
Sequence of embryonic chicken Ang II receptor (chicken) (P79785 whole entry): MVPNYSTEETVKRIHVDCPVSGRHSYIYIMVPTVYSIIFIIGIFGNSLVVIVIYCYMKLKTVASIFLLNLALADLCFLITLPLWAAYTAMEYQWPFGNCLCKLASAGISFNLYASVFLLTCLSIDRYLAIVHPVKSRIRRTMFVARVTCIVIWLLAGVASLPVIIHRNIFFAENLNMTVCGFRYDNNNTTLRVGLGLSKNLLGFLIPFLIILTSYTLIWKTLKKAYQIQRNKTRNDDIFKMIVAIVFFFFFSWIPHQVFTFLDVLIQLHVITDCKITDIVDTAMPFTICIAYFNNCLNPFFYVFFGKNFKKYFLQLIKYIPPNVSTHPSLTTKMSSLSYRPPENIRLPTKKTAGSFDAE

Binder | inhibition of neurite outgrowth from E11 chicken sympathetic neurons: half maximal inhibition [1] [pM] | inhibition of neurite outgrowth from E11 chicken sympathetic neurons: maximal effect [1] [nM] | inhibition of neurite outgrowth from E11 chicken sympathetic neurons: threshold [1] [pM] | affinity in competing for ^125I-Ang IV binding [2] [nM] | IC50 [3] [nM] | IC50 [4] [nM] | IC50 [5] [µM] | IC50 [6] [nM] | IC50 [7] [nM]
B1 | 100 | 1 | 10 | 1 to 5 | 5 | 1 | 50 | 18 | 1.13
B2 | – | – | – | 1 to 5 | – | 5.6 | – | – | 2
